Our source for the binding result and Kd values is publication PMC9524272 (Frontiers in Immunology, 2022).

What is called Kd is the free concentration of one partner at which half of the binding sites on the other are occupied at equilibrium, for simple one-to-one binding.

Test [1] addresses SARS-CoV-2 Spike RBD Omicron BA.4&BA.5 (SARS-CoV-2 Omicron BA.4/BA.5, strain).
In test [2] the target is SARS-CoV-2 spike receptor binding domain, Beta B.1.351 (SARS-CoV-2 Beta B.1.351 (on Wuhan-Hu-1 …, strain)).
Test [3] addresses SARS-CoV-2 spike receptor binding domain, Wuhan-Hu-1 (WT) (SARS-CoV-2 Wuhan-Hu-1, UniProt P0DTC2).
For test [4], the target named is SARS-CoV-2 spike receptor binding domain, Delta B.1.617.2 (SARS-CoV-2 Delta B.1.617.2 (on …, strain)).
Test [5] concerns the target SARS-CoV-2 spike receptor binding domain, Omicron BA.1 (IPBCAMS-OM01/2021) (SARS-CoV-2 Omicron BA.1, isolate …, strain).

B1: H7 (VHH)
VHH: QVQLVESGGGLVQPGGSLRLSCAASGYSYRSTYYLGWFRQAPGQGLEAVAAIYGAGSTYYADSVKGRFTISRDNSKNTLYLQMNSLRAEDTAVYYCAAGDESTRGYGYSWDYWGQGTLVTVSS
As to B1, the binding result in test [1] and in test [5] was “binds” in each case. Moreover, the Kd worked out at 3.7 nM in test [2], 4.4 nM in test [3] and 7.2 nM in test [4].
